Source: patent US20150196651A1 (published 2015)
Square brackets hold non-standard residues; d marks the D form. Ends that are not written are not given here. * marks the point of attachment. 1Nal = N[C@@H](Cc1cccc2ccccc12)C(=O)O; Stearoyl = CCCCCCCCCCCCCCCCCC(=O)*; Palmitoyl = CCCCCCCCCCCCCCCC(=O)*; Myristoyl = CCCCCCCCCCCCCC(=O)*; PheCl2 = dichlorophenylalanine; Lauroyl = CCCCCCCCCCCC(=O)*; PheNO2 = nitrophenylalanine; Decanoyl = CCCCCCCCCC(=O)*; Nle = CCCC[C@H](N)C(=O)O; Octanoyl = CCCCCCCC(=O)*

What was measured:
[1] = target: T1, rat PrRP receptor in RC-4B/C cells (rat, UniProt Q64121 1-370); test: competition with 125I-rat PrRP31, RC-4B/C cells
T1 construct: whole, on cells; endogenous receptor of RC-4B/C cells (ATCC); also called rat receptor; GPR10 receptor expressed in rat hypophyseal cells
T1 sequence (looked up): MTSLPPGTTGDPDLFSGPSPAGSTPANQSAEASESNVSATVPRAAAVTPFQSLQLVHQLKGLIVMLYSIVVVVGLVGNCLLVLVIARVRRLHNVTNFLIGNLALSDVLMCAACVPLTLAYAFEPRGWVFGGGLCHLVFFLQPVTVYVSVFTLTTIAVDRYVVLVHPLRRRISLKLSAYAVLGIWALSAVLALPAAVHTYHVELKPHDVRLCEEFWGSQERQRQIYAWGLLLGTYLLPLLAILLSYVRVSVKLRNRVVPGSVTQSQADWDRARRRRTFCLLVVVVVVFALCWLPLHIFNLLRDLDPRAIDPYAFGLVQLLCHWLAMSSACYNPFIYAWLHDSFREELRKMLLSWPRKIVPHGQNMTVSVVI
In short: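 Incubation 60 min at room temperature; cells solubilized in 0.1 mol/l NaOH and bound radioactivity γ-counted. Run in duplicate, repeated at least three times.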

[2] = target: T2, human PrRP receptor GPR10 (human, UniProt P49683 1-370); test: competition with 125I-human PrRP31, CHO cells with human GPR10
T2 construct: whole, on cells; also called GPR10 human receptor transfected in CHO cells; human GPR10 receptor
T2 sequence (looked up): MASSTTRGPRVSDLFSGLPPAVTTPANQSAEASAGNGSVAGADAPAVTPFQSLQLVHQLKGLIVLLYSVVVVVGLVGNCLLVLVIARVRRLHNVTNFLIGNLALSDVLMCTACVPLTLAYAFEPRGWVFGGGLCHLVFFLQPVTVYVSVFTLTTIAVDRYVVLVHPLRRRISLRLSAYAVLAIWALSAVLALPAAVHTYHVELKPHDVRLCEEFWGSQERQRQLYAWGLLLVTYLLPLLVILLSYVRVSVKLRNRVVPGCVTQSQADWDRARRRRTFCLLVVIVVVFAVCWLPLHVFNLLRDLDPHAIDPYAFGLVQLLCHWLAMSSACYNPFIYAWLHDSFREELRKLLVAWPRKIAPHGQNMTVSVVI

Binder	% of PrRP31 [1]	Ki [1]	% of PrRP31 [2]	Ki [2]
Myristoyl-SRAHQHS[Nle]ETRTPDINPAWYTGRGIRPVGRF-NH2 [analog no. 7]	714%	0.69 nM	548%	0.71 nM
SRAHQHS[Nle]ETRTPDINPAWYTGRGIRPVGR[PheCl2]-NH2 [analog no. 13]	128%	3.84 nM	171%	2.27 nM
Myristoyl-SRAHQHS[Nle]ETRTPDINPAWYTGRGIRPVGR[PheCl2]-NH2 [analog no. 14]	275%	1.79 nM	409%	0.95 nM
Myristoyl-TPDINPAWYASRGIRPVGRF-NH2 (SMILES CCCCCCCCCCCCCC(=O)N[C@H](C(=O)N1CCC[C@H]1C(=O)N[C@@H](CC(=O)O)C(=O)N[C@H](C(=O)N[C@@H](CC(N)=O)C(=O)N1CCC[C@H]1C(=O)N[C@@H](C)C(=O)N[C@@H](Cc1c[nH]c2ccccc12)C(=O)N[C@@H](Cc1ccc(O)cc1)C(=O)N[C@@H](C)C(=O)N[C@@H](CO)C(=O)N[C@@H](CCCNC(=N)N)C(=O)NCC(=O)N[C@H](C(=O)N[C@@H](CCCNC(=N)N)C(=O)N1CCC[C@H]1C(=O)N[C@H](C(=O)NCC(=O)N[C@@H](CCCNC(=N)N)C(=O)N[C@@H](Cc1ccccc1)C(N)=O)C(C)C)[C@@H](C)CC)[C@@H](C)CC)[C@@H](C)O) [analog no. 2]	1030%	0.48 nM	90%	4.33 nM
Palmitoyl-SRAHQHS[Nle]ETRTPDINPAWYTGRGIRPVGR[1Nal]-NH2 [analog no. 12]	227%	2.17 nM	91%	4.27 nM
SRAHQHS[Nle]ETRTPDINPAWYTGRGIRPVGR[1Nal]-NH2 [analog no. 10]	4.8%	102 nM	11%	34.5 nM
Myristoyl-SRAHQHS[Nle]ETRTPDINPAWYTGRGIRPVGR[PheNO2]-NH2 [analog no. 17]	250%	1.97 nM	245%	1.59 nM
Myristoyl-SHQRPADTHWYPRG[Nle]FPTIGRITARNGEVSR (scrambled peptide; also called 20 scram) [analog no. 20]	4.6%	123 nM	1.5%	262 nM
Decanoyl-SRAHQHS[Nle]ETRTPDINPAWYTGRGIRPVGRF-NH2 [analog no. 5]	758%	0.65 nM	266%	1.46 nM
Palmitoyl-SRAHQHS[Nle]ETRTPDINPAWYTGRGIRPVGR[PheCl2]-NH2 [analog no. 15]	379%	1.3 nM	370%	1.05 nM
SRAHQHS[Nle]ETRTPDINPAWYTGRGIRPVGR[PheNO2]-NH2 [analog no. 16]	2.5%	19.9 nM	81%	4.8 nM
Myristoyl-SRAHQHS[Nle]ETRTPDINPAWYTGRGIRPVGR[1Nal]-NH2 [analog no. 11]	124%	3.96 nM	292%	1.33 nM
Palmitoyl-SRAHQHS[Nle]ETRTPDINPAWYTGRGIRPVGRF-NH2 [analog no. 8]	967%	0.51 nM	128%	3.03 nM
Octanoyl-SRAHQHS[Nle]ETRTPDINPAWYTGRGIRPVGRF-NH2 [analog no. 4]	503%	0.98 nM	254%	1.53 nM
Stearoyl-SRAHQHS[Nle]ETRTPDINPAWYTGRGIRPVGRF-NH2 [analog no. 9]	514%	0.96 nM	72%	5.39 nM
Palmitoyl-SRAHQHS[Nle]ETRTPDINPAWYTGRGIRPVGR[PheNO2]-NH2 [analog no. 18]	850%	0.58 nM	505%	0.77 nM
Lauroyl-SRAHQHS[Nle]ETRTPDINPAWYTGRGIRPVGRF-NH2 [analog no. 6]	1260%	0.39 nM	327%	1.19 nM
